Patent US20130115676
Where a chain is given by its changes, count along the chain named.

Key:
Assay in all cases: cleavage_in_vitro
[1] = molecular target: T1, ScaI-HF H193A/S201F (Streptomyces caespitosus) (UniProt O52691); settings: NEB4, 10 mM Mg acetate, 37 C
T1 sequence: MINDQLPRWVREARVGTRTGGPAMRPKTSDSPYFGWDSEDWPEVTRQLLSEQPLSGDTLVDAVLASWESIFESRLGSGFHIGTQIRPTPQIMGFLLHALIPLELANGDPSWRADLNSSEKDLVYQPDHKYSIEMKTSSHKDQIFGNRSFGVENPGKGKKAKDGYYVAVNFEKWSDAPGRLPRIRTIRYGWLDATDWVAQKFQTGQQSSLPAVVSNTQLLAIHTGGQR

[2] = molecular target: T2, BamHI (Bacillus amyloliquefaciens) (UniProt P23940); settings: NEB3, 10 mM MgCl2, 37 C
T2 sequence: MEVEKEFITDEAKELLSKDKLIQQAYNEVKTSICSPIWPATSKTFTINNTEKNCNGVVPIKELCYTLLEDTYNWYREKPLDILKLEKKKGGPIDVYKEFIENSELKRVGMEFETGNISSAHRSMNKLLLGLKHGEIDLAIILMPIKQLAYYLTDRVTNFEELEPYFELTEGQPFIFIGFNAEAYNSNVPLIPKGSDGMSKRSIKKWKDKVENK

[3] = molecular target: T3, ScaI (Streptomyces caespitosus) (UniProt O52691); settings: NEB2, 10 mM MgCl2, 37 C; printed as 1/8
T3 sequence: T1 sequence with A193H, F201S

[4] = system: T4, SbfI (Streptomyces species Bf-61?); settings: NEB1, 10 mM MgCl2, 37 C
T4 sequence: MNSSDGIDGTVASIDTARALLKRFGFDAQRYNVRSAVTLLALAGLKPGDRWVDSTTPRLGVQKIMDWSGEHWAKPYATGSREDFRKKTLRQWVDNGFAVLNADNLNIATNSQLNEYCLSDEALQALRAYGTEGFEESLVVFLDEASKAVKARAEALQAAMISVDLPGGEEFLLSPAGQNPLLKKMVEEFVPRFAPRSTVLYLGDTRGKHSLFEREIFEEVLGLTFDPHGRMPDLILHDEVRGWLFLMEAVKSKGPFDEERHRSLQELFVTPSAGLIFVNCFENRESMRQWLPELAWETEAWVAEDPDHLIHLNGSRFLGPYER

[5] = molecular target: T5, PstI-HF D91A (Providencia stuartii 164) (UniProt P00640); settings: NEB4, 10 mM Mg acetate, 37 C
T5 sequence: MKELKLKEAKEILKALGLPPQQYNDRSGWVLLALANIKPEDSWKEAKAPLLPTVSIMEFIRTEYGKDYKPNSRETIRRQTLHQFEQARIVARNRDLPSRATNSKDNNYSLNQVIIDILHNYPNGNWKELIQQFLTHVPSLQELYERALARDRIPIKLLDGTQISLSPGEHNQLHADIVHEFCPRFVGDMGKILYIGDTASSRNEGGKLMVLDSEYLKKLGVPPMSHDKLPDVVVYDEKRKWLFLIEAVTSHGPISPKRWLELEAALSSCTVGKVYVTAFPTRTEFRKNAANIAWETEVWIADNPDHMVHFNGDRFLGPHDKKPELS

BstXI-HF N65A = settings: NEB4, 10 mM Mg acetate, 55 C
[6] = system: T6, SphI (Streptomyces phaeochromogenes); settings: NEB1, 10 mM MgCl2, 37 C
T6 sequence: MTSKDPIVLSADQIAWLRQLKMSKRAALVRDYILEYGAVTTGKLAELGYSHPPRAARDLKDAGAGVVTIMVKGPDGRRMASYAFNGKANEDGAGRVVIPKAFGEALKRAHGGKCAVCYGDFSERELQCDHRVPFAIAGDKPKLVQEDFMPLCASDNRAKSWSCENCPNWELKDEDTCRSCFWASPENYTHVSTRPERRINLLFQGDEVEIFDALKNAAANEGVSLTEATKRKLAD

[7] = system: T7, SapI (Saccharopolyspora sp.); settings: NEB4, 10 mM Mg acetate, 37 C
T7 sequence: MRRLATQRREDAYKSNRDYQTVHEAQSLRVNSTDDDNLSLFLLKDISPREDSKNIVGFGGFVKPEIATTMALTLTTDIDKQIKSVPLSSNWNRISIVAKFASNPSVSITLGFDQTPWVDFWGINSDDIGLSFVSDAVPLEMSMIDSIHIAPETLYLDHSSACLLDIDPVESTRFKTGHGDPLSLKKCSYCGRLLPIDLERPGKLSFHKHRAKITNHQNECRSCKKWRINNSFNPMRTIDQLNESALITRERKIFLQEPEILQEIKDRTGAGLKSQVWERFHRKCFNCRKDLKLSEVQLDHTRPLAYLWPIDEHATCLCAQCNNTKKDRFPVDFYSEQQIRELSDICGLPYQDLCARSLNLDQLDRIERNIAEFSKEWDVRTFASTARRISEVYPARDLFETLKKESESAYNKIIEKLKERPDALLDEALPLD

[8] = system: T8, NcoI-HF A2T/R31A (Nocardia corallina); settings: NEB4, 10 mM Mg acetate, 37 C
T8 sequence: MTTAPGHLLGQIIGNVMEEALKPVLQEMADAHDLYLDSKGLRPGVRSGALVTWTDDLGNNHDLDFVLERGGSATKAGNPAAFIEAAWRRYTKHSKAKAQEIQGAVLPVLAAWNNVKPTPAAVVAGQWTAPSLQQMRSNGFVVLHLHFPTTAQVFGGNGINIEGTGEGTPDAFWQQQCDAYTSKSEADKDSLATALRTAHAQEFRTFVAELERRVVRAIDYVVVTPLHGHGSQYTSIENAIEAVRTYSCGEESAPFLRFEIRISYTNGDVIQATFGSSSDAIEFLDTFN

BsmBI = settings: NEB3, 10 mM MgCl2, 55 C
[9] = system: T9, SbfI-HF K251A (Streptomyces species Bf-61?); settings: NEB1, 10 mM MgCl2, 37 C
T9 sequence: T4 sequence with K251A

lambda DNA
activity (fidelity index) [1]: 1000 | activity (fidelity index) [2]: 32 | activity (fidelity index) [3]: 0.125 | activity (fidelity index) [4]: 32 | activity (fidelity index) [5]: 4000 | activity (fidelity index) (BstXI-HF N65A): > 250 | activity (fidelity index) [6]: 64 | activity (fidelity index) [7]: 16 | activity (fidelity index) [8]: > 64000 | activity (fidelity index) (BsmBI): 120 | activity (fidelity index) [9]: 1000
